Measured values as given in the supplement of paper PMC7877785.
± gives the uncertainty stated by the source.

Assay: self-splicing fitness, log relative to wild type (ln ratio); higher = more splicing; Tetrahymena group I intron in knt gene, E. coli kanamycin selection, DiMSum; sequences stand for … in CUCUCU…GGAGGGAAAAGUUAUCAGGCAUGCACCUGGUAGCUAGUCUUUAAACCAAUAGAUUGCAUCGGUUUAAAAGGCAAGACCGUCAAAUUGCGGGAAAGGGGUCAACAGCCGUUCAGUACCAAGUCUCAGGGGAAACUUUGAGAUGGCCUUGCAAAGGGUAUGGUAAUAAGCUGACGGACAUGGUCCUAACCACGCAGCCAAGUCCUAAGUCAACAGAUCUUCUGUUGAUAUGGAUGCAGUUCACAGACUAAAUGUCGGUCGGGGAAGAUGUAUUCUUCUCAUAAGAUAUAGUCGGACCUCUCCUUAAUGGGAGCUAGCGGAUGAAGUGAUGCAACACUGGAGCCGCUGGGAACUAAUUUGUAUGCGAAAGUAUAUUGAUUAGUUUUGGAGUACUCGUGGUCG
Method in brief: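 Six replicate transformations of E. coli BL21(DE3) with a pET-22b(+) library were grown overnight at 37°C or 30°C. The library randomised all eight P1ex-region intron nucleotides, the intron lying in the knt kanamycin-resistance gene, and plates were LB agar with or without 25 μg/mL kanamycin plus 100 μg/mL carbenicillin, 50 μM IPTG and 0.2% rhamnose. Pooled colonies were amplicon-sequenced on an Illumina HiSeq 2500, and fitness is the DiMSum error-weighted combination of wild-type-normalised replicate fold changes, kanamycin versus none.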

Sequence	self-splicing fitness (ln) (30 °C)	self-splicing fitness (ln) (37 °C)
UGGUAGCAAUAUUACGCGUG	-0.581 ± 0.087	0.251 ± 0.1
UGGUAGCAAUAUUACGGACA	-0.879 ± 0.12	0.135 ± 0.16
UGGUAGCAAUAUUACGGAGA	–	-1.24 ± 0.2
UGGUAGCAAUAUUACGGAUG	-1.34 ± 0.15	0.065 ± 0.13
UGGUAGCAAUAUUACGGCAA	-1.14 ± 0.086	0.277 ± 0.1
UGGUAGCAAUAUUACGGCGA	-0.171 ± 0.19	0.49 ± 0.15
UGGUAGCAAUAUUACGGGAG	-3.82 ± 0.43	-1.6 ± 0.13
UGGUAGCAAUAUUACGGGCG	0.0756 ± 0.11	0.475 ± 0.12
UGGUAGCAAUAUUACGGUGG	-3.53 ± 0.2	-1.94 ± 0.14
UGGUAGCAAUAUUACGUAAA	-1.01 ± 0.099	-0.497 ± 0.11
UGGUAGCAAUAUUACGUACC	-2.93 ± 0.42	-2.31 ± 0.49
UGGUAGCAAUAUUACGUACU	0.209 ± 0.34	–
UGUAAGCAAUAUUACGAAAG	-3.6 ± 0.25	-2.75 ± 0.34
UGUAAGCAAUAUUACGAACC	-0.477 ± 0.22	0.667 ± 0.32
UGUAAGCAAUAUUACGAACG	0.23 ± 0.13	0.542 ± 0.13
UGUAAGCAAUAUUACGCAGA	-3.67 ± 0.42	-1.72 ± 0.34
UGUAAGCAAUAUUACGCGGG	-4.06 ± 0.29	-0.563 ± 0.15
UGUAAGCAAUAUUACGCUAA	-2.73 ± 0.21	-0.75 ± 0.15
UGUAAGCAAUAUUACGCUAG	-1.82 ± 0.1	-0.0644 ± 0.099
UGUAAGCAAUAUUACGGCCC	-2.98 ± 0.38	–
UGUAAGCAAUAUUACGGCGG	-0.367 ± 0.098	-0.217 ± 0.12
UGUAAGCAAUAUUACGGGGU	-3.75 ± 0.31	-2.24 ± 0.28
UGUAAGCAAUAUUACGGUCA	-0.349 ± 0.08	0.113 ± 0.12
UGUAAGCAAUAUUACGGUUG	-1.14 ± 0.096	-0.58 ± 0.1
UGUAAGCAAUAUUACGUAUA	-1.21 ± 0.097	-0.761 ± 0.12

Sequence	self-splicing fitness (ln) (30 °C)	self-splicing fitness (ln) (37 °C)
UGUAAGCAAUAUUACGUCAG	-1.14 ± 0.093	-0.0311 ± 0.11
UGUAAGCAAUAUUACGUGAU	-3.5 ± 0.18	-2.05 ± 0.17
UGUAAGCAAUAUUACGUGGA	-2.52 ± 0.25	-1.78 ± 0.22
UGUAAGCAAUAUUACGUGUA	-1.52 ± 0.077	-0.97 ± 0.093
UGUAAGCAAUAUUACGUUCC	-4.53 ± 0.33	-0.21 ± 0.19
UGUCAGCAAUAUUACGAAGC	-3.79 ± 0.18	-0.785 ± 0.17
UGUCAGCAAUAUUACGAAGU	-4.02 ± 0.46	-1.93 ± 0.24
UGUCAGCAAUAUUACGAAUA	-0.932 ± 0.14	-1.03 ± 0.11
UGUCAGCAAUAUUACGACGU	-1.31 ± 0.098	-0.968 ± 0.14
UGUCAGCAAUAUUACGAGUA	-1.31 ± 0.066	-0.775 ± 0.073
UGUCAGCAAUAUUACGAUUG	-0.341 ± 0.076	0.249 ± 0.12
UGUCAGCAAUAUUACGCACC	-1.28 ± 0.18	-0.269 ± 0.21
UGUCAGCAAUAUUACGCAUA	-0.485 ± 0.06	0.0762 ± 0.068
UGUCAGCAAUAUUACGCGAA	-0.455 ± 0.069	0.0551 ± 0.085
UGUCAGCAAUAUUACGCUCU	-0.884 ± 0.15	-0.226 ± 0.13
UGUCAGCAAUAUUACGCUGA	-0.7 ± 0.23	-0.59 ± 0.27
UGUCAGCAAUAUUACGCUUG	-1.09 ± 0.066	-0.432 ± 0.089
UGUCAGCAAUAUUACGCUUU	-1.13 ± 0.091	0.276 ± 0.09
UGUCAGCAAUAUUACGGACC	-0.173 ± 0.15	-2.33 ± 0.17
UGUCAGCAAUAUUACGGCGU	-1.95 ± 0.15	-0.728 ± 0.13
UGUCAGCAAUAUUACGGCUC	-2.5 ± 0.15	-0.587 ± 0.16
UGUCAGCAAUAUUACGGGAU	-3.26 ± 0.15	-3.32 ± 0.19
UGUCAGCAAUAUUACGGGGC	-2.84 ± 0.16	-3.02 ± 0.26
UGUCAGCAAUAUUACGGUGU	-2.06 ± 0.084	-1.13 ± 0.1
UGUCAGCAAUAUUACGGUUC	-3.07 ± 0.2	-1.63 ± 0.24

Sequence	self-splicing fitness (ln) (30 °C)	self-splicing fitness (ln) (37 °C)
UGUCAGCAAUAUUACGUAGG	-0.865 ± 0.079	-0.275 ± 0.1
UGUCAGCAAUAUUACGUAGU	-2.85 ± 0.15	-0.865 ± 0.11
UGUCAGCAAUAUUACGUCUG	-0.693 ± 0.1	-0.104 ± 0.11
UGUCAGCAAUAUUACGUGCG	-0.00445 ± 0.076	0.159 ± 0.092
UGUCAGCAAUAUUACGUUGA	-3.77 ± 0.23	-2.47 ± 0.19
UGUCAGCAAUAUUACGUUGG	-4.09 ± 0.3	-2.22 ± 0.25
UGUGAGCAAUAUUACGAGCU	-2.7 ± 0.26	-2.14 ± 0.41
UGUGAGCAAUAUUACGCACG	-1.47 ± 0.21	-1.8 ± 0.21
UGUGAGCAAUAUUACGCAUG	-1.91 ± 0.15	-1.96 ± 0.22
UGUGAGCAAUAUUACGCCAG	-2.23 ± 0.32	-2.01 ± 0.34
UGUGAGCAAUAUUACGCCUC	-1.83 ± 0.41	–
UGUGAGCAAUAUUACGCUAA	-2.39 ± 0.17	-2.04 ± 0.23
UGUGAGCAAUAUUACGGAAU	-3.76 ± 0.32	-2.04 ± 0.23
UGUGAGCAAUAUUACGUGAA	–	-1.69 ± 0.23
UGUGAGCAAUAUUACGUGCC	-2.51 ± 0.3	–
UGUGAGCAAUAUUACGUGCU	-3.34 ± 0.29	-3.41 ± 0.33
UGUGAGCAAUAUUACGUGUA	-1.49 ± 0.29	-1.46 ± 0.28
UGUGAGCAAUAUUACGUUAA	-2.97 ± 0.31	-2.44 ± 0.37
UGUGAGCAAUAUUACGUUGC	–	-1.57 ± 0.37
UGUUAGCAAUAUUACGAACA	-1.08 ± 0.2	-1.15 ± 0.32
UGUUAGCAAUAUUACGAAGU	-3.08 ± 0.13	-2.76 ± 0.19
UGUUAGCAAUAUUACGAAUC	-2.97 ± 0.48	–
UGUUAGCAAUAUUACGACCU	-0.58 ± 0.16	0.317 ± 0.2
UGUUAGCAAUAUUACGAGGA	–	-1.92 ± 0.21
UGUUAGCAAUAUUACGAGUA	-1.32 ± 0.13	-0.347 ± 0.13

Sequence	self-splicing fitness (ln) (30 °C)	self-splicing fitness (ln) (37 °C)
UGUUAGCAAUAUUACGAUAA	-0.767 ± 0.17	-0.345 ± 0.16
UGUUAGCAAUAUUACGAUCU	-0.736 ± 0.088	-0.148 ± 0.12
UGUUAGCAAUAUUACGCCGA	-1.18 ± 0.17	-1.21 ± 0.15
UGUUAGCAAUAUUACGCUCG	-0.015 ± 0.18	-0.0235 ± 0.21
UGUUAGCAAUAUUACGGAUC	-2.29 ± 0.35	-1.81 ± 0.27
UGUUAGCAAUAUUACGGCGU	-0.742 ± 0.1	-0.892 ± 0.14
UGUUAGCAAUAUUACGGUCG	-0.217 ± 0.15	0.99 ± 0.18
UGUUAGCAAUAUUACGGUUC	-1.02 ± 0.24	-1.25 ± 0.48
UGUUAGCAAUAUUACGUACA	-0.999 ± 0.11	0.16 ± 0.13
UGUUAGCAAUAUUACGUAGA	-2.29 ± 0.12	-0.809 ± 0.14
UGUUAGCAAUAUUACGUAGU	-3.48 ± 0.33	-2.22 ± 0.27
UGUUAGCAAUAUUACGUCAU	-2.42 ± 0.3	-1.35 ± 0.24
UGUUAGCAAUAUUACGUUAU	-2.78 ± 0.16	-2.67 ± 0.19
UGUUAGCAAUAUUACGUUCU	-1.29 ± 0.14	-0.157 ± 0.16
UUAAAGCAAUAUUACGAAAA	-0.945 ± 0.057	-0.761 ± 0.08
UUAAAGCAAUAUUACGAACA	-0.0579 ± 0.13	0.708 ± 0.18
UUAAAGCAAUAUUACGAACG	0.275 ± 0.12	0.794 ± 0.16
UUAAAGCAAUAUUACGAACU	-0.567 ± 0.11	-0.0402 ± 0.12
UUAAAGCAAUAUUACGACUC	-0.15 ± 0.12	-0.0274 ± 0.15
UUAAAGCAAUAUUACGAGAG	-0.988 ± 0.061	-0.259 ± 0.11
UUAAAGCAAUAUUACGCCGG	-0.245 ± 0.12	0.421 ± 0.18
UUAAAGCAAUAUUACGCGCU	-0.179 ± 0.1	-0.107 ± 0.11
UUAAAGCAAUAUUACGCGGA	-0.811 ± 0.097	0.458 ± 0.1
